Laboratory results as given in the supplement of paper PMC10065799, “High-throughput profiling of sequence recognition by tyrosine kinases and SH2 domains using bacterial peptide display” (eLife, 2023).

Biological target: Fes (UniProt P07332)
Experiment: phosphorylation enrichment, bacterial display (enrichment ratio); higher = better substrate or ligand; peptides without Tyr show the background
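Note: 11-residue human phosphosite peptides and single-mutation variants displayed on the E. coli surface, counted by deep sequencing, each peptide's frequency after selection divided by its frequency in the unselected input library; frequency after pTyr selection over input frequency; kinase dosed for 20-30% of maximal phosphorylation in three min.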

Sequence of Fes (P07332 whole entry, looked up): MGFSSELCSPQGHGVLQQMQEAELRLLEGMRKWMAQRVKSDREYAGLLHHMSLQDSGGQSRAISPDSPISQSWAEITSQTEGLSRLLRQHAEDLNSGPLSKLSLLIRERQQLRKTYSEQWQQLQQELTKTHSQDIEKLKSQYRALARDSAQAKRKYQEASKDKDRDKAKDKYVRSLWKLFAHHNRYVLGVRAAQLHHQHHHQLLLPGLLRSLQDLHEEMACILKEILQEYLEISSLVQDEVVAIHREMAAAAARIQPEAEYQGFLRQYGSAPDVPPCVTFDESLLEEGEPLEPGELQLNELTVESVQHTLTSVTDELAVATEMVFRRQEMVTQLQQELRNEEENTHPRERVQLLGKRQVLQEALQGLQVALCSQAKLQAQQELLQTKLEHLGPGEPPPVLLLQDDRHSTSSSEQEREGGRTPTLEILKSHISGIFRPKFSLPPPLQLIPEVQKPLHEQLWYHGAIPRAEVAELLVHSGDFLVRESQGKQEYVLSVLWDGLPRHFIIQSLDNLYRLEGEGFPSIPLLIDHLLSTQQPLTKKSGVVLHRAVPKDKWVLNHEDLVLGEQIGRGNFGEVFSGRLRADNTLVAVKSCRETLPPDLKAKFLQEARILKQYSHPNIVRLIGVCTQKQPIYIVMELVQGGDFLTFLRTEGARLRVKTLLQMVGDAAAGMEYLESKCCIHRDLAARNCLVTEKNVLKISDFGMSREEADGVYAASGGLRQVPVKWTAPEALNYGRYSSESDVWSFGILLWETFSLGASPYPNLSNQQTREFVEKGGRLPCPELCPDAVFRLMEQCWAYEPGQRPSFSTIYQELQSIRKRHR

With VEDHDYEGGIG [TKT_Y564_Y563D] as the sequence, how does the phosphorylation enrichment read?
Its phosphorylation enrichment is 1.45.

For RGKDSYETSKL [SPP1_Y225_Q229K], which phosphorylation enrichment is on record?
Its phosphorylation enrichment is 0.986.

Which phosphorylation enrichment does the source give for ARSHIYTFSSC [MEFV_Y741_A744S] here?
The phosphorylation enrichment was 0.917.

How did the phosphorylation enrichment turn out when QLPRGYISIPV [BAG3_Y205] was run?
The phosphorylation enrichment was 0.974.

With NKVFTYIFIME [SCN4A_Y1074_D1069N] as the sequence, how does the phosphorylation enrichment read?
Its phosphorylation enrichment is 1.71.

For YMKEPYIQSRF [HIPK4_Y175_V171M], which phosphorylation enrichment is on record?
Its phosphorylation enrichment is 0.703.

Which phosphorylation enrichment does the source give for KDHPDYKFQAR [SOX10_Y171_P175A_YF] here?
Its phosphorylation enrichment is 0.658.

For CEHRGSLFLAI [TEK_Y897_Y897S_YF], which phosphorylation enrichment is on record?
The phosphorylation enrichment was 1.16.

GRPLFYWLTGC [LYZL6_Y140] was tested. Which phosphorylation enrichment did it give?
The phosphorylation enrichment was 1.13.

How did the phosphorylation enrichment turn out when MSRNLYSGDCF [DDR2_Y736_Y740C_YF] was run?
The phosphorylation enrichment was 1.

With RGLQVYHRRNA [LRP2_Y2010] as the sequence, how does the phosphorylation enrichment read?
Its phosphorylation enrichment is 1.05.

Which phosphorylation enrichment does the source give for EEVPLYESATT [DCC_Y809_G805E] here?
Its phosphorylation enrichment is 1.32.

ACCLLYCGDVV [TUBA4A_Y319_R320C] was tested. Which phosphorylation enrichment did it give?
The phosphorylation enrichment was 1.3.

How did the phosphorylation enrichment turn out when KVMANYVYKAG [MAML2_Y513_M514V] was run?
Its phosphorylation enrichment is 0.551.

VLTSKYRGGGG [HBA1_Y141] was tested. Which phosphorylation enrichment did it give?
Its phosphorylation enrichment is 0.911.

Which phosphorylation enrichment does the source give for TVHCDYLNIPH [TAF1L_Y1385] here?
Its phosphorylation enrichment is 1.02.

For CSEEMYRLMLQ [RET_Y981], which phosphorylation enrichment is on record?
Its phosphorylation enrichment is 1.41.

For PSQRRNVYYYS [PTEN_Y174_Y174N], which phosphorylation enrichment is on record?
The phosphorylation enrichment was 0.838.

Which phosphorylation enrichment does the source give for EQKKFYNAMKK [SCN5A_Y1495_YF] here?
Its phosphorylation enrichment is 0.576.

Which phosphorylation enrichment does the source give for FDGGCYEQLFV [MC4R_Y41_S36Y_YF] here?
The phosphorylation enrichment was 1.49.

QFQEKYKQVEQ [HCN4_Y531_YF] was tested. Which phosphorylation enrichment did it give?
The phosphorylation enrichment was 1.29.

With APAHKYHGGGG [HBD_Y146_L142P] as the sequence, how does the phosphorylation enrichment read?
Its phosphorylation enrichment is 0.502.

How did the phosphorylation enrichment turn out when GRRNTYFASIA [ACADM_Y352_YF] was run?
The phosphorylation enrichment was 0.556.

With TVFSDYLHPQY [CCPG1_Y569] as the sequence, how does the phosphorylation enrichment read?
Its phosphorylation enrichment is 0.944.

Which phosphorylation enrichment does the source give for KKCTRYIDCDR [ASPA_Y64_L69R] here?
The phosphorylation enrichment was 1.

Which phosphorylation enrichment does the source give for TILEHYRRTHC [MYBPC3_Y1119_V1115I] here?
Its phosphorylation enrichment is 1.08.

With LSVEIYDRREF [ITGB7_Y753_YF] as the sequence, how does the phosphorylation enrichment read?
Its phosphorylation enrichment is 1.25.

DEGVNYFMSKG [FBXO8_Y156] was tested. Which phosphorylation enrichment did it give?
The phosphorylation enrichment was 0.984.

Which phosphorylation enrichment does the source give for LLSISYVGCSL [ADGRD1_Y571_S567L] here?
The phosphorylation enrichment was 2.03.

Biological target: Jak2 (UniProt O60674)
Experiment: as above

Sequence of Jak2 (O60674 whole entry, looked up): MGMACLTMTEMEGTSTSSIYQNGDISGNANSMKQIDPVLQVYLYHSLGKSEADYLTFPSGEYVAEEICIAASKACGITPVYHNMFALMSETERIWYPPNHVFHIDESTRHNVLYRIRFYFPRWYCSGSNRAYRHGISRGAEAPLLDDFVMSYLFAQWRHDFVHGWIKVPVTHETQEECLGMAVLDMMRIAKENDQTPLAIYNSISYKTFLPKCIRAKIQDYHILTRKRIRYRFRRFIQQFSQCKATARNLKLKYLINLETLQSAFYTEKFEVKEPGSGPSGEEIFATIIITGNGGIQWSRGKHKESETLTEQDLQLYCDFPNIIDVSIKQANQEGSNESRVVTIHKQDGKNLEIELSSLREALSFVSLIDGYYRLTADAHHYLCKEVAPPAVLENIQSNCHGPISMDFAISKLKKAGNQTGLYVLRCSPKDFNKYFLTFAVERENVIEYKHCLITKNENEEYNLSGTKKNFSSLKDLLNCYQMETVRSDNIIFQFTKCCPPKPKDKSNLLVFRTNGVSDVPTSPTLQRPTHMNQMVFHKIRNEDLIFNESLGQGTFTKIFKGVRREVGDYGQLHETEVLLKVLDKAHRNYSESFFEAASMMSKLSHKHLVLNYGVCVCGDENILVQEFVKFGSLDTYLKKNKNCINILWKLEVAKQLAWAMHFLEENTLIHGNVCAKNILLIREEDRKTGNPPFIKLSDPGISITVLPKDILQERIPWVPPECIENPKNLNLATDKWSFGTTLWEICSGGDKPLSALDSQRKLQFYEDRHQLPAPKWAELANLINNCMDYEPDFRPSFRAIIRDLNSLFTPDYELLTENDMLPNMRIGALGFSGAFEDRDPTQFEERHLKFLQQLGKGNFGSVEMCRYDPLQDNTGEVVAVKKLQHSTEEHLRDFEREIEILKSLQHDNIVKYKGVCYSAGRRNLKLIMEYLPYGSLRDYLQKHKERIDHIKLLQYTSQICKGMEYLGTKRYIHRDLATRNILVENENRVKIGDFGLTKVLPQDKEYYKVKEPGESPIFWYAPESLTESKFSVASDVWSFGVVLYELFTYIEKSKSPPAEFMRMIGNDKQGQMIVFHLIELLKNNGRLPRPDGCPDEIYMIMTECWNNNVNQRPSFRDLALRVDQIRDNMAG

How did the phosphorylation enrichment turn out when VEDHDYEGGIG [TKT_Y564_Y563D] was run?
The phosphorylation enrichment was 1.24.

For RGKDSYETSKL [SPP1_Y225_Q229K], which phosphorylation enrichment is on record?
Its phosphorylation enrichment is 1.07.

ARSHIYTFSSC [MEFV_Y741_A744S] was tested. Which phosphorylation enrichment did it give?
The phosphorylation enrichment was 0.714.

Which phosphorylation enrichment does the source give for QLPRGYISIPV [BAG3_Y205] here?
Its phosphorylation enrichment is 0.881.

For NKVFTYIFIME [SCN4A_Y1074_D1069N], which phosphorylation enrichment is on record?
Its phosphorylation enrichment is 1.46.

For YMKEPYIQSRF [HIPK4_Y175_V171M], which phosphorylation enrichment is on record?
The phosphorylation enrichment was 0.855.

Which phosphorylation enrichment does the source give for KDHPDYKFQAR [SOX10_Y171_P175A_YF] here?
The phosphorylation enrichment was 0.559.

For CEHRGSLFLAI [TEK_Y897_Y897S_YF], which phosphorylation enrichment is on record?
Its phosphorylation enrichment is 1.04.

For GRPLFYWLTGC [LYZL6_Y140], which phosphorylation enrichment is on record?
Its phosphorylation enrichment is 1.04.

With MSRNLYSGDCF [DDR2_Y736_Y740C_YF] as the sequence, how does the phosphorylation enrichment read?
The phosphorylation enrichment was 0.903.

How did the phosphorylation enrichment turn out when RGLQVYHRRNA [LRP2_Y2010] was run?
The phosphorylation enrichment was 1.2.

Which phosphorylation enrichment does the source give for EEVPLYESATT [DCC_Y809_G805E] here?
Its phosphorylation enrichment is 1.27.

ACCLLYCGDVV [TUBA4A_Y319_R320C] was tested. Which phosphorylation enrichment did it give?
Its phosphorylation enrichment is 1.09.

Which phosphorylation enrichment does the source give for KVMANYVYKAG [MAML2_Y513_M514V] here?
The phosphorylation enrichment was 0.514.

With VLTSKYRGGGG [HBA1_Y141] as the sequence, how does the phosphorylation enrichment read?
The phosphorylation enrichment was 0.454.

With TVHCDYLNIPH [TAF1L_Y1385] as the sequence, how does the phosphorylation enrichment read?
Its phosphorylation enrichment is 0.941.

How did the phosphorylation enrichment turn out when CSEEMYRLMLQ [RET_Y981] was run?
Its phosphorylation enrichment is 1.5.

How did the phosphorylation enrichment turn out when PSQRRNVYYYS [PTEN_Y174_Y174N] was run?
Its phosphorylation enrichment is 0.916.

EQKKFYNAMKK [SCN5A_Y1495_YF] was tested. Which phosphorylation enrichment did it give?
The phosphorylation enrichment was 0.569.

How did the phosphorylation enrichment turn out when FDGGCYEQLFV [MC4R_Y41_S36Y_YF] was run?
The phosphorylation enrichment was 1.43.

Which phosphorylation enrichment does the source give for QFQEKYKQVEQ [HCN4_Y531_YF] here?
Its phosphorylation enrichment is 2.09.

APAHKYHGGGG [HBD_Y146_L142P] was tested. Which phosphorylation enrichment did it give?
Its phosphorylation enrichment is 0.35.

GRRNTYFASIA [ACADM_Y352_YF] was tested. Which phosphorylation enrichment did it give?
Its phosphorylation enrichment is 0.5.

With TVFSDYLHPQY [CCPG1_Y569] as the sequence, how does the phosphorylation enrichment read?
Its phosphorylation enrichment is 1.36.

For KKCTRYIDCDR [ASPA_Y64_L69R], which phosphorylation enrichment is on record?
Its phosphorylation enrichment is 0.691.

TILEHYRRTHC [MYBPC3_Y1119_V1115I] was tested. Which phosphorylation enrichment did it give?
Its phosphorylation enrichment is 0.781.

LSVEIYDRREF [ITGB7_Y753_YF] was tested. Which phosphorylation enrichment did it give?
Its phosphorylation enrichment is 0.958.

Which phosphorylation enrichment does the source give for DEGVNYFMSKG [FBXO8_Y156] here?
Its phosphorylation enrichment is 0.996.

For LLSISYVGCSL [ADGRD1_Y571_S567L], which phosphorylation enrichment is on record?
The phosphorylation enrichment was 1.77.
